Assay [1] addresses HCMV Pentamer protein complex (gH/gL/UL128/UL130/UL131A) (Human Cytomegalovirus (HCMV)). As to the kind of experiment: SPR Biacore 8K+, single-cycle kinetics, IgG captured on Protein A chip, Pentamer as analyte, 1:1 fit. (SPR reads the build-up and loss of mass on a sensor chip optically.)
Assay [2] deals with HCMV gH/gL/gO protein complex (Human Cytomegalovirus (HCMV)). As to the kind of experiment: SPR Biacore 8K+, single-cycle kinetics, IgG captured on Protein A chip, gH/gL/gO as analyte, 1:1 fit.

As a reminder, the Kd is the constant that tells how readily two partners part at equilibrium. A higher Kd goes with lower affinity. Broadly, the koff is the first-order rate constant of dissociation. Read a low koff as slow dissociation. A word on the kon: it is a measure of how fast the partners come together.

HCMV Pentamer protein complex (gH/gL/UL128/UL130/UL131A) (Human Cytomegalovirus (HCMV)), sequence (Q6SW67 24-719, chain 1 of 4): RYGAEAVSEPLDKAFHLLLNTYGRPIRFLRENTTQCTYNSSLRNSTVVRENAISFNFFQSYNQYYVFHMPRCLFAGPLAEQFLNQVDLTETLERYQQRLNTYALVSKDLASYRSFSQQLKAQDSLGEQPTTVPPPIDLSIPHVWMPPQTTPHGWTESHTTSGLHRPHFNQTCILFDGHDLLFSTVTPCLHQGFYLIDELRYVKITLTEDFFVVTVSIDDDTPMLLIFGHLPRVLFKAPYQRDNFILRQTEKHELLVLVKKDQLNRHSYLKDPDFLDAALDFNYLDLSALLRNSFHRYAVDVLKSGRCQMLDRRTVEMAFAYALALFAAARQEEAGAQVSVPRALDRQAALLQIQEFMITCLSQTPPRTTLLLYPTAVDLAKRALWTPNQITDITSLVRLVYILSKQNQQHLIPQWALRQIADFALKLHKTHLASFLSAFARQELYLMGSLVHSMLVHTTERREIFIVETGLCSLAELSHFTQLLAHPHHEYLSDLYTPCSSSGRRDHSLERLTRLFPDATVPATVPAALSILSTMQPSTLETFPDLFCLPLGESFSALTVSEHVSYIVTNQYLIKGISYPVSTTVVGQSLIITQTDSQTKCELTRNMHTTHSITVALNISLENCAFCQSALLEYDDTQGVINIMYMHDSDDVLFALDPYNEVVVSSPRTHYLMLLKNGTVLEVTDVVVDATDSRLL
HCMV Pentamer protein complex (gH/gL/UL128/UL130/UL131A) (Human Cytomegalovirus (HCMV)), sequence (F5HCH8 31-278, chain 2 of 4, further chain): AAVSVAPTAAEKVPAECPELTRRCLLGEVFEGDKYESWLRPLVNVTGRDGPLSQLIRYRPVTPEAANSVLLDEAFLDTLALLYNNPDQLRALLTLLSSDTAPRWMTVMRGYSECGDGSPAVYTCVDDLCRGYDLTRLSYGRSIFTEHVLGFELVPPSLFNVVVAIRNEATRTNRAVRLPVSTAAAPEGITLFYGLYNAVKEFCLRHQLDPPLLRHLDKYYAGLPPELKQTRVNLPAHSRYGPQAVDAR
HCMV Pentamer protein complex (gH/gL/UL128/UL130/UL131A) (Human Cytomegalovirus (HCMV)), sequence (P16837 28-171, chain 3 of 4, further chain): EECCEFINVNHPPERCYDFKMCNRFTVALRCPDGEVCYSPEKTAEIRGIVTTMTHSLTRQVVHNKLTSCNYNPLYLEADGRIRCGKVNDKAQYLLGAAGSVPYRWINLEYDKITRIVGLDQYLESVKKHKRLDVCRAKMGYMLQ
HCMV Pentamer protein complex (gH/gL/UL128/UL130/UL131A) (Human Cytomegalovirus (HCMV)), sequence (F5HCP3 26-214, chain 4 of 4, further chain): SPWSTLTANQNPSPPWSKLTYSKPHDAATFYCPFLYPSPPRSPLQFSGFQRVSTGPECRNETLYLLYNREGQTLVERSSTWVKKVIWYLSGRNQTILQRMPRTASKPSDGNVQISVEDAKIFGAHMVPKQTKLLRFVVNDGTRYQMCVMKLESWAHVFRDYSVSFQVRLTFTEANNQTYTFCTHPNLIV

B1: humanized 23C2 mAb (antibody, human IgG1, kappa, V domains shown)
VH: DVQLQESGPGLVKPSQSLSLTCSVTGYSIKSGYYWNWIRQFPGNKLEWMGYISYGGDFTYNPSLKNRISITRDTSKNQFFLKLNSVTTEDTATYFCVREPNWESYFDIWGAGTTVTVSS
VL: DIQMTQSPASLSASVGETVTITCRASDNIYSYLTWYHQKQGKSPHLLVYNAKTLPEGVPLRFSGTGSGTQFSLKINSLQPEDFGIYFCLHDYGFPRTFGGGTILEVKR
For the molecule B1, in assay [1], the Kd turned out to be 1.03 nM, the koff was determined as 0.000285 s⁻¹ and the kon was 275000 M⁻¹ s⁻¹.

B2: humanized 26B6 mAb (antibody, human IgG1, kappa, V domains shown)
VH: EVQLVESGGGLVKPGGSLKLSCAASGFTITDYYIYWLRQTPEKKLEWVAAISDGGRYTDYPDSVKGRFTMSSDNAKTNLYLQMGSLQSDDTGMYYCARWASYGYHWYFDVWGAGTTVTVSS
VL: DIQMTQTTSSLSASLGDRVTISCSASQDISNYINWYQQKRDGTVKLLIYDSSSLHSGVPSRFSGSGSGTDYSLTISNLEPEDFATYFCQQYSNLPPTFGGGTNLEIKR
In assay [1], B2 showed a Kd of 0.123 nM, a koff of 5.3e-05 s⁻¹ and a kon of 432000 M⁻¹ s⁻¹.

B3: humanized 2C7 mAb (antibody, human IgG1, kappa, V domains shown)
VH: EVQLQQSGPELEKPGASVKISCKASGYSFTGYNMNWVKQSNGKSLEWIGNIDPYFGGTSYNQKFKGKATLTVDKSSSTAYMELKSLTSEDSAVYYCARHYGYFPWFAYWGQGTLVTVSA
VL: DIVLTQSPASLAVSLGQRATISCRASESVDSSGNSFMHWYQQKPGQPPKLLIYRASNLESGIPARFSGSGSRTDFTLTINPVGADDVATYYCQQSNEDPWTFGGGTKLEIKR
For the molecule B3, in assay [1], the Kd was 0.721 nM, the off-rate (koff) is 0.000322 s⁻¹ and the kon came to 447000 M⁻¹ s⁻¹. For the same molecule, in assay [2], the Kd stood at 1 nM, the koff came out at 0.000416 s⁻¹ and the kon is 415000 M⁻¹ s⁻¹.

These data come from patent US20230174626A1.
